# Measured values: patent US20190300590A1 (PROTAGONIST THERAPEUTICS, published 2019)
# Bridges are numbered along the chain shown (N, C = ends). [ ]: non-standard residue; d: D form. 2Nal = N[C@@H](Cc1ccc2ccccc2c1)C(=O)O; AEF = NCCOc1ccc(C[C@H](N)C(=O)O)cc1; NMeR = CN[C@@H](CCCNC(=N)N)C(=O)O; Cit = NC(=O)NCCC[C@H](N)C(=O)O; αMeL = CC(C)C[C@](C)(N)C(=O)O; αMeK = C[C@](N)(CCCCN)C(=O)O; Ac5c = NC1(C(=O)O)CCCC1; Abu = CC[C@H](N)C(=O)O; Dap = NC[C@H](N)C(=O)O; Aib = CC(C)(N)C(=O)O; AEA = NCCOCC(=O)O; βAla = NCCC(=O)O
# T1: IL-23R on human cells (IL-23R-expressing DB cells; human NK cells) (human, UniProt Q5VWK5 24-629)
# T1 sequence (looked up): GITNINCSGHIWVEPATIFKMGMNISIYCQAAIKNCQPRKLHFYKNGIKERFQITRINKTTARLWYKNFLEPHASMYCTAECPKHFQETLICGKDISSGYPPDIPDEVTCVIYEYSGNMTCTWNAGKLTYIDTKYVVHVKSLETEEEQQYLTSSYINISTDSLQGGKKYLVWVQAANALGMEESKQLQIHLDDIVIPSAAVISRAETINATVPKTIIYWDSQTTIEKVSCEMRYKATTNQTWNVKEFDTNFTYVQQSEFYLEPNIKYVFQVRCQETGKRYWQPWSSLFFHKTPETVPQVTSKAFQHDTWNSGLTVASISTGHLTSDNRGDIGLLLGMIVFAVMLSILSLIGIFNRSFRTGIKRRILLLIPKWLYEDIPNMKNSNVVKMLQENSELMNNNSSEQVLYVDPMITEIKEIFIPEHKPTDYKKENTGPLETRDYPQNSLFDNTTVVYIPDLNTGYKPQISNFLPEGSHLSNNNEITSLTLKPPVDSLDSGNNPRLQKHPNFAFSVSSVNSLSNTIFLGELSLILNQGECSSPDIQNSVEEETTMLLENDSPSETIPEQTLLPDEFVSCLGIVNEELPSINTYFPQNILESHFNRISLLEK
# T2: IL23R_huFC (human, UniProt Q5VWK5 24-353)
# T2 sequence (looked up): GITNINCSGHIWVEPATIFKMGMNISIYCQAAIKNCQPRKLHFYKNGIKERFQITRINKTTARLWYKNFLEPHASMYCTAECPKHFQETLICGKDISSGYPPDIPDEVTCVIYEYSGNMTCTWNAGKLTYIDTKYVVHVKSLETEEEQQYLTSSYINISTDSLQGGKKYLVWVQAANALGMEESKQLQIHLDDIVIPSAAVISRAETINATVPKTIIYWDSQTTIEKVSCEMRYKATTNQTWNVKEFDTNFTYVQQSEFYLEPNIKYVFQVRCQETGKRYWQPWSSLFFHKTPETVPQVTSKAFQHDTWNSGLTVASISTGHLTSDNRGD
# B1: Ac-CQTWQCYWR-[(D)Glu]-NG-[AEA[(D)-Lys]-NH2 (peptide)
# peptide: Ac-CQTWQCYWR[dE]NG[AEA][dK]-NH2
# modifications: disulfide 1-6
# SMILES: CC(=O)N[C@H]1CSSC[C@@H](C(=O)N[C@@H](Cc2ccc(O)cc2)C(=O)N[C@@H](Cc2c[nH]c3ccccc23)C(=O)N[C@@H](CCCNC(=N)N)C(=O)N[C@H](CCC(=O)O)C(=O)N[C@@H](CC(N)=O)C(=O)NCC(=O)NCCOCC(=O)N[C@H](CCCCN)C(N)=O)NC(=O)[C@H](CCC(N)=O)NC(=O)[C@H](Cc2c[nH]c3ccccc23)NC(=O)[C@H]([C@@H](C)O)NC(=O)[C@H](CCC(N)=O)NC1=O
# B2: Ac-CQTWQCYWR-[N-MeArg]-NG-[AEA]-[(D)-Lys]-NH2 (peptide)
# peptide: Ac-CQTWQCYWR[NMeR]NG[AEA][dK]-NH2
# modifications: disulfide 1-6
# SMILES: CC(=O)N[C@H]1CSSC[C@@H](C(=O)N[C@@H](Cc2ccc(O)cc2)C(=O)N[C@@H](Cc2c[nH]c3ccccc23)C(=O)N[C@@H](CCCNC(=N)N)C(=O)N(C)[C@@H](CCCNC(=N)N)C(=O)N[C@@H](CC(N)=O)C(=O)NCC(=O)NCCOCC(=O)N[C@H](CCCCN)C(N)=O)NC(=O)[C@H](CCC(N)=O)NC(=O)[C@H](Cc2c[nH]c3ccccc23)NC(=O)[C@H]([C@@H](C)O)NC(=O)[C@H](CCC(N)=O)NC1=O
# Biological target: T1, IL-23R on human cells …
# Assay: cell-based or functional assay
row,Binder,pStat3 HTRF IC50 [nM]
1,Ac-[Abu]QTWQC[AEF]W[αMeK]K(Ac)NG-NH2 (thioether 1-6) [Ac-Cyclo-[[Abu]-QTWQC]-[Phe[4-(2-aminoethoxy)]]-W-[α-MeLys]-[Lys(Ac)]-NG-NH2],< 10
2,Ac-[Abu]QTWQC[AEF][2Nal][Cit][Dap]NG-NH2 (thioether 1-6) [Ac-Cyclo-[[Abu]-QTWQC]-[Phe[4-(2-aminoethoxy)]]-[2-Nal]-[Cit]-[Dap]-NG-NH2],< 10
3,Ac-[Abu]QTWQC[AEF][2Nal][Aib]E[Dap](Ac)G-NH2 (thioether 1-6) [Ac-Cyclo-[[Abu]-QTWQC]-[Phe[4-(2-aminoethoxy)]]-[2-Nal]-[Aib]-E-[Dap(Ac)]-G-NH2],< 10
4,Ac-[Abu]QTWQC[AEF][2Nal][Ac5c]ENN-NH2 (thioether 1-6) [Ac-Cyclo-[[Abu]-QTWQC]-[Phe[4-(2-aminoethoxy)]]-[2-Nal]-[Acvc]-ENN-NH2],< 10
5,Ac-[Abu]QTWQC[AEF][2Nal][4‑amino‑4‑carboxy‑piperidine]ENN-NH2 (thioether 1-6) [Ac-Cyclo-[[Abu]-QTWQC]-[Phe[4-(2-aminoethoxy)]]-[2-Nal]-[4-amino-4-carboxy-piperidine]-ENN-NH2],< 10
6,Ac-[Abu]QTWQC[AEF][2Nal][αMeL]K(Ac)NG-NH2 (thioether 1-6) [Ac-Cyclo-[[Abu]-QTWQC]-[Phe[4-(2-aminoethoxy)]]-[2-Nal]-[α-MeLeu]-[Lys(Ac)]-NG-NH2],< 10
7,Ac-[Abu]QTWQC[AEF][2Nal][αMeL]ENG-NH2 (thioether 1-6) [Ac-Cyclo-[[Abu]-QTWQC]-[Phe[4-(2-aminoethoxy)]]-[2-Nal]-[α-MeLeu]-ENG-NH2],< 10
8,Ac-[Abu]QTWQC[AEF][2Nal][αMeL]QNG-NH2 (thioether 1-6) [Ac-Cyclo-[[Abu]-QTWQC]-[Phe[4-(2-aminoethoxy)]]-[2-Nal]-[α-MeLeu]-QNG-NH2],< 10
9,Ac-[Abu]QTWQC[AEF][2Nal][Aib]QN[βAla]-NH2 (thioether 1-6) [Ac-Cyclo-[[Abu]-QTWQC]-[Phe[4-(2-aminoethoxy)]]-[2-Nal]-[Aib]-QN-[βAla]-NH2],< 10

# Biological target: T2, IL23R_huFC
# Assay: IL23-IL23R competitive ELISA
row,Binder,IC50 [nM]
1,Ac-CQTWQCYW[dR]ENG[AEA][dK]-NH2 (disulfide 1-6 (inferred)) [Ac-CQTWQCYW-[(D)Arg]-ENG-[AEA]-[(D)-Lys]-NH2],> 1000
2,Ac-CQTWQCYW[dR][dE]NG[AEA][dK]-NH2 (disulfide 1-6 (inferred)) [Ac-CQTWQCYW-[(D)Arg]-[(D)Glu]-NG-[AEA]-[(D)Lys]-NH2],> 1000
3,"Ac-CQTWQCYW[NMeR]ENG[AEA][dK]-NH2 (disulfide 1-6 (inferred)) [Ac-CQTWQCYW-[N-MeArg]-ENG-[AEA]-[(D)-Lys]-NH2, listing 1 of 2 here]",> 1000
4,"Ac-CQTWQCYW[NMeR]ENG[AEA][dK]-NH2 (disulfide 1-6 (inferred)) [Ac-CQTWQCYW-[N-MeArg]-ENG-[AEA]-[(D)-Lys]-NH2, listing 2 of 2 here]",> 1000
5,B1,> 1000
6,B2,> 1000
